Patent publication CN114249819A

Tests used:
[1] = target: 猫泛白细胞减少症病毒1009株 (Feline panleukopenia virus); experiment: indirect immunofluorescence on acetone-fixed F81 cells infected with FPV 1009 strain
[2] = target: 猫泛白细胞减少症病毒1009株 (Feline panleukopenia virus); experiment: cell-based or functional assay

B1: 单克隆抗体3C3 (antibody, V domains shown)
VH: DVKLVESGGGLVNLGGSLKLSCAASGFTFSSYYMSWVRQTPEKRLELVAAINSNGGGTHSPDTVKGRFTISRDNAKNTLYLQMSSLESEDTALYYCARHADDGSFGLNWYFDVWGAGTTVTVSS
VL: DIVMSQSPSSLAVSVGEKVTMSCKSSQSLLYRSNEKNYLAWYQQKPGQSPKLLIYWGSTRESGVPDRFTGSGSGTDFTLTISSVKAEDLAVYYCHQYYRYSYTFGGGTKLEIK
B1 gave an IFA效价 (reciprocal dilution (printed 1:n)) [1] of 6400 and an HI效价 (reciprocal dilution (printed 1:n)) [2] of 5120.
